Test results as given in paper PMC6180346, “Two Faces of CwlM, an Essential PknB Substrate, in Mycobacterium tuberculosis” (Cell Reports, 2018).
Read-outs that look alike come from different tables or passages of the source.

Target: FhaA C-terminal FHA domain (UniProt P71590)

Substance: CwlM 378-392 (from UniProt L7N653)
- binding against the reference (sites T382): gained
- binding against the reference (sites T386): gained
